Read-outs that look alike come from different tables or passages of the source.
T1: 4H3413-AA
T1 chain: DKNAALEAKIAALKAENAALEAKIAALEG

T2: 4H3588-AA
T2 chain: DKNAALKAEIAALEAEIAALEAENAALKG

T3: 4H3606-AA
T3 chain: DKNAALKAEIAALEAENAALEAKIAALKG

T4: 4H3631-AA
T4 chain: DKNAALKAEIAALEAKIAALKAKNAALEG

T5: 4H3697-AA
T5 chain: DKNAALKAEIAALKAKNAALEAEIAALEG

T6: 4H3718-AA
T6 chain: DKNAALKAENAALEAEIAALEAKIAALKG

T7: 4H384-AA
T7 chain: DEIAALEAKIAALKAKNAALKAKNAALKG

T8: 4H3865-AA
T8 chain: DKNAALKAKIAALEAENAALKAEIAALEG

T9: 4H697-AA
T9 chain: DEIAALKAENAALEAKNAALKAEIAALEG

T10: 4H982-AA
T10 chain: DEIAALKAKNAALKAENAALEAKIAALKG

T11: 4H949-bN
T11 chain: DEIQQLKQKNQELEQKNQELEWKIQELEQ

T12: 4H2754-AA
T12 chain: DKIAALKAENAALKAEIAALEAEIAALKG

T13: 4H2837-AA
T13 chain: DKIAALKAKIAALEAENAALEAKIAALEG

T14: 4H2883-AA
T14 chain: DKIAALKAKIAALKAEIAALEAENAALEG

T15: 4H2944-AA
T15 chain: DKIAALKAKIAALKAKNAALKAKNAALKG

T16: 4H2949-AA
T16 chain: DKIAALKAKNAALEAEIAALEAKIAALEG

T17: 4H3112-AA
T17 chain: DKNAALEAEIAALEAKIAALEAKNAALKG

T18: 4H317-AA
T18 chain: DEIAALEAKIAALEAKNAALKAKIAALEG

T19: 4H3343-AA
T19 chain: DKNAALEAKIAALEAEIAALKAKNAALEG

T20: 4H335-AA
T20 chain: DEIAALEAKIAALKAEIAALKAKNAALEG

T21: 4H342-AA
T21 chain: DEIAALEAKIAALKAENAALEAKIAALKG

T22: 4H3427-AA
T22 chain: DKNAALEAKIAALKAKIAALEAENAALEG

T23: 4H3627-AA
T23 chain: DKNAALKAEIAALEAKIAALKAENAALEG

T24: 4H3655-AA
T24 chain: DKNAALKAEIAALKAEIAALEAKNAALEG

T25: 4H3844-AA
T25 chain: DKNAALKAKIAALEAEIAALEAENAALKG

T26: 4H3921-AA
T26 chain: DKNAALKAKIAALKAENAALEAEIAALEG

T27: 4H429-AA
T27 chain: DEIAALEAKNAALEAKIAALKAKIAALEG

T28: 4H454-AA
T28 chain: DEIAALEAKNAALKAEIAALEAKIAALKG

T29: 4H48-AA
T29 chain: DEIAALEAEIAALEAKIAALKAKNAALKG

T30: 4H566-AA
T30 chain: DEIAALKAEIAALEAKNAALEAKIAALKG

T31: 4H605-AA
T31 chain: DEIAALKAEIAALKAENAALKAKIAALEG

T32: 4H678-AA
T32 chain: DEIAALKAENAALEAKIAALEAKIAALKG

T33: 4H717-AA
T33 chain: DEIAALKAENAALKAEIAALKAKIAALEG

T34: 4H780-AA
T34 chain: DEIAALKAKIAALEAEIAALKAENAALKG

T35: 4H794-AA
T35 chain: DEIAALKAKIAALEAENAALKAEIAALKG

T36: 4H881-AA
T36 chain: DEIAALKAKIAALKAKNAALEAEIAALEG

T37: 4H906-AA
T37 chain: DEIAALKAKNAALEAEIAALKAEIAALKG

T38: 4H993-AA
T38 chain: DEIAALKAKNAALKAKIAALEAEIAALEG

B1: 4H3413-AA (peptide)
chain: DKNAALEAKIAALKAENAALEAKIAALEG
B2: 4H949-bN (peptide)
chain: DEIQQLKQKNQELEQKNQELEWKIQELEQ
B3: 4H2754-AA (peptide)
chain: DKIAALKAENAALKAEIAALEAEIAALKG
B4: 4H2837-AA (peptide)
chain: DKIAALKAKIAALEAENAALEAKIAALEG

Key:
4H3413-AA = target: T1, 4H3413-AA; assay: two-hybrid library CCmax;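 note: natural log of median RNA to DNA barcode read ratio; higher means stronger binding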
4H3588-AA = target: T2, 4H3588-AA; assay: two-hybrid library CCmax; details: mean of both orientations;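 note: natural log of median RNA to DNA barcode read ratio; higher means stronger binding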
4H3606-AA = target: T3, 4H3606-AA; assay: two-hybrid library CCmax; details: mean of both orientations;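 note: natural log of median RNA to DNA barcode read ratio; higher means stronger binding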
4H3631-AA = target: T4, 4H3631-AA; assay: two-hybrid library CCmax; details: mean of both orientations;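 note: natural log of median RNA to DNA barcode read ratio; higher means stronger binding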
4H3697-AA = target: T5, 4H3697-AA; assay: two-hybrid library CCmax; details: mean of both orientations;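 note: natural log of median RNA to DNA barcode read ratio; higher means stronger binding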
4H3718-AA = target: T6, 4H3718-AA; assay: two-hybrid library CCmax; details: mean of both orientations;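 note: natural log of median RNA to DNA barcode read ratio; higher means stronger binding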
4H384-AA = target: T7, 4H384-AA; assay: two-hybrid library CCmax; details: mean of both orientations
4H3865-AA = target: T8, 4H3865-AA; assay: two-hybrid library CCmax; details: mean of both orientations
4H697-AA = target: T9, 4H697-AA; assay: two-hybrid library CCmax; details: mean of both orientations
4H982-AA = target: T10, 4H982-AA; assay: two-hybrid library CCmax; details: mean of both orientations
4H949-bN = target: T11, 4H949-bN; assay: two-hybrid library CCNG1
4H2754-AA = target: T12, 4H2754-AA; assay: two-hybrid library CCmax
4H2837-AA = target: T13, 4H2837-AA; assay: two-hybrid library CCmax
4H2883-AA = target: T14, 4H2883-AA; assay: two-hybrid library CCmax
4H2944-AA = target: T15, 4H2944-AA; assay: two-hybrid library CCmax; details: mean of both orientations
4H2949-AA = target: T16, 4H2949-AA; assay: two-hybrid library CCmax; details: mean of both orientations
4H3112-AA = target: T17, 4H3112-AA; assay: two-hybrid library CCmax; details: mean of both orientations
4H317-AA = target: T18, 4H317-AA; assay: two-hybrid library CCmax; details: mean of both orientations
4H3343-AA = target: T19, 4H3343-AA; assay: two-hybrid library CCmax; details: mean of both orientations
4H335-AA = target: T20, 4H335-AA; assay: two-hybrid library CCmax; details: mean of both orientations
4H342-AA = target: T21, 4H342-AA; assay: two-hybrid library CCmax; details: mean of both orientations
4H3427-AA = target: T22, 4H3427-AA; assay: two-hybrid library CCmax; details: mean of both orientations
4H3627-AA = target: T23, 4H3627-AA; assay: two-hybrid library CCmax; details: mean of both orientations
4H3655-AA = target: T24, 4H3655-AA; assay: two-hybrid library CCmax; details: mean of both orientations
4H3844-AA = target: T25, 4H3844-AA; assay: two-hybrid library CCmax; details: mean of both orientations
4H3921-AA = target: T26, 4H3921-AA; assay: two-hybrid library CCmax; details: mean of both orientations
4H429-AA = target: T27, 4H429-AA; assay: two-hybrid library CCmax; details: mean of both orientations
4H454-AA = target: T28, 4H454-AA; assay: two-hybrid library CCmax; details: mean of both orientations
4H48-AA = target: T29, 4H48-AA; assay: two-hybrid library CCmax; details: mean of both orientations
4H566-AA = target: T30, 4H566-AA; assay: two-hybrid library CCmax; details: mean of both orientations
4H605-AA = target: T31, 4H605-AA; assay: two-hybrid library CCmax; details: mean of both orientations
4H678-AA = target: T32, 4H678-AA; assay: two-hybrid library CCmax; details: mean of both orientations
4H717-AA = target: T33, 4H717-AA; assay: two-hybrid library CCmax; details: mean of both orientations
4H780-AA = target: T34, 4H780-AA; assay: two-hybrid library CCmax; details: mean of both orientations
4H794-AA = target: T35, 4H794-AA; assay: two-hybrid library CCmax; details: mean of both orientations
4H881-AA = target: T36, 4H881-AA; assay: two-hybrid library CCmax; details: mean of both orientations
4H906-AA = target: T37, 4H906-AA; assay: two-hybrid library CCmax; details: mean of both orientations
4H993-AA = target: T38, 4H993-AA; assay: two-hybrid library CCmax; details: mean of both orientations

Binder	interaction score (4H3606-AA)	interaction score (4H2944-AA)	interaction score (4H2949-AA)	interaction score (4H3112-AA)	interaction score (4H317-AA)	interaction score (4H3343-AA)	interaction score (4H335-AA)	interaction score (4H342-AA)	interaction score (4H3427-AA)	interaction score (4H3627-AA)	interaction score (4H3655-AA)	interaction score (4H3844-AA)	interaction score (4H3921-AA)	interaction score (4H429-AA)	interaction score (4H454-AA)	interaction score (4H48-AA)	interaction score (4H566-AA)	interaction score (4H605-AA)	interaction score (4H678-AA)	interaction score (4H717-AA)	other results
B1	1.14																				interaction score (4H3413-AA): 0.362; interaction score (4H3588-AA): -1.34; interaction score (4H3631-AA): -1.19; interaction score (4H3697-AA): -0.722; interaction score (4H3718-AA): -1.38; interaction score (4H384-AA): -0.506; interaction score (4H3865-AA): 0.0208; interaction score (4H697-AA): -0.828; interaction score (4H982-AA): -1.39
B2																					interaction score (4H949-bN): -0.614
B3	0.688	-1.87	-1.05	-1.52	-1.23	-1.26	-0.745	0.684	-1.7	-1.36	-1.51	-1.53	-0.732	0.608	2.24	-1.2	-1.09	-1.51	1.82	0.757	interaction score (4H2754-AA): 2.15; interaction score (4H2837-AA; mean of both orientations): -0.727; interaction score (4H2883-AA; mean of both orientations): -0.999; interaction score (4H780-AA): -1.74; interaction score (4H794-AA): -1.89; interaction score (4H881-AA): 1.13; interaction score (4H906-AA): -0.0753; interaction score (4H993-AA): 1.43
B4	-1.14	0.691	-0.836	1.23	1.61	-1.14	-0.534	2.11	-2.38	-1.3	-0.923	-1.21	-1.49	0.476	-0.102	0.24	1.66	0.402	-1.18	-0.861	interaction score (4H2837-AA): 1.42; interaction score (4H2883-AA): -0.938; interaction score (4H780-AA): -1.81; interaction score (4H794-AA): 0.0291; interaction score (4H881-AA): 1.65; interaction score (4H906-AA): -0.599; interaction score (4H993-AA): 1.44

— publication PMC10397247
